Here are results for 3 variants from IntAct's records for PubMed 17954914.

B1: Calcipressin-like protein (Saccharomyces cerevisiae), P36054 (parent)
chain: MGNIITDTIIITSDKCDIVDNDNVERIQVWLSKNILRKFQINENEPLQLIILKRFKRILLICPSHDISQHVMDASRALEMENFNFSYSLQDGQRNLTKQYLKVPESEKMFLISPPASPPPEFDFSKCEDAPQRHIQSHIQQDQQQRLEASQLLPNNPDKNNNGTFTLLKSKVGAITIDRCPTNDGNGQMQLADHVKTAFPPKSIFDTDDDD
partner: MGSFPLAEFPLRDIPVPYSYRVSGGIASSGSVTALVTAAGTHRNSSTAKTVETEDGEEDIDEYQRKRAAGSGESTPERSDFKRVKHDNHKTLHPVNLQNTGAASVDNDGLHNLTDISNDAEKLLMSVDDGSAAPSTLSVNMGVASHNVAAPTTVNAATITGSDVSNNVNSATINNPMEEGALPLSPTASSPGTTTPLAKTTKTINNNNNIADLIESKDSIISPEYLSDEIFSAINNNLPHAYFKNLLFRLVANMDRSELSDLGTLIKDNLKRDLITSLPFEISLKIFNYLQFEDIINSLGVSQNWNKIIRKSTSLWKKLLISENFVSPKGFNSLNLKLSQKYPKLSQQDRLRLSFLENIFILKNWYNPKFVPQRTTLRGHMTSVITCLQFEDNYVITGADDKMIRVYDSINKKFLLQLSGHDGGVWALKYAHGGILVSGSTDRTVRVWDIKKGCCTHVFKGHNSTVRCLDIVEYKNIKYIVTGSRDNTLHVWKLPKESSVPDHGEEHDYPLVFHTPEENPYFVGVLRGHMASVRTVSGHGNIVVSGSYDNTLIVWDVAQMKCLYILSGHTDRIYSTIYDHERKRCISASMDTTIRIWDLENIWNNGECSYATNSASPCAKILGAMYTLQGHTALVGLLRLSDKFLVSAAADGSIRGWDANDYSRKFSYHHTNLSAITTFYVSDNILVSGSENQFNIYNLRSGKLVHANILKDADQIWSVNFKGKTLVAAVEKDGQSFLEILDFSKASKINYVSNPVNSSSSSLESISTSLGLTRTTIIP

Variants of B1 are the subject of the assay. The following applies: with cdc4_yeast CDC4, P07834.
Turning to S117A, the “effect of a mutation on the interaction” value is given as “disrupting interaction”.
Then S113A, with “disrupting interaction”; and S113A;S117A, with “disrupting interaction strength”.
